# Assay results: patent US20200079833A1 (AstraZeneca / MedImmune, published 2020)
# Starred links: 1 amine or outer side, 2 acyl side, 3 side chain; linkers in the order of their positions; H or OH if unused. Non-standard residues stand in square brackets, D forms with d. Groups on a side chain read outwards from the residue. Primed or numbered codes have the meaning given here. No end group written: not given here. *: point of attachment. γGlu = O=C(O)[C@H](CCC(=O)[*:2])N[*:1]; Palmitoyl = CCCCCCCCCCCCCCCC(=O)*; αMeF = C[C@](N)(Cc1ccccc1)C(=O)O; αMeK = C[C@](N)(CCCCN)C(=O)O; Lauroyl = CCCCCCCCCCCC(=O)*; αMeS = C[C@](N)(CO)C(=O)O; Nle = CCCC[C@H](N)C(=O)O; PEG2′ = not defined here; Aib = CC(C)(N)C(=O)O
# T1: glucose-dependent insulinotropic peptide (gastric inhibitory polypeptide) receptor (GIPR), primary cAMP assay (human, UniProt P48546 22-466)
# T1 sequence (looked up): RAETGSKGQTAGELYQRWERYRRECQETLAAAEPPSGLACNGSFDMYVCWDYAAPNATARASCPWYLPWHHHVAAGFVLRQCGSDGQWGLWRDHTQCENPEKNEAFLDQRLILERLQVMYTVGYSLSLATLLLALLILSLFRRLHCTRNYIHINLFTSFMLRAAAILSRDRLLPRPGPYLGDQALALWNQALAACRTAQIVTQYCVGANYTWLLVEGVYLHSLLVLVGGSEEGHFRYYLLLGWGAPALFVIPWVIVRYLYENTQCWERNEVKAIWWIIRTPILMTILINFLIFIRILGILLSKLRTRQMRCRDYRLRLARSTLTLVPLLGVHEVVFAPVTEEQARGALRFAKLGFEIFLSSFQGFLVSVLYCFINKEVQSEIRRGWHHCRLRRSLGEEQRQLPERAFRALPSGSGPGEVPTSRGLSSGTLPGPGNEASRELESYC
# T2: GLP-1R in the INS1e assay (UniProt P32301 22-463, limits assumed)
# T2 sequence (looked up): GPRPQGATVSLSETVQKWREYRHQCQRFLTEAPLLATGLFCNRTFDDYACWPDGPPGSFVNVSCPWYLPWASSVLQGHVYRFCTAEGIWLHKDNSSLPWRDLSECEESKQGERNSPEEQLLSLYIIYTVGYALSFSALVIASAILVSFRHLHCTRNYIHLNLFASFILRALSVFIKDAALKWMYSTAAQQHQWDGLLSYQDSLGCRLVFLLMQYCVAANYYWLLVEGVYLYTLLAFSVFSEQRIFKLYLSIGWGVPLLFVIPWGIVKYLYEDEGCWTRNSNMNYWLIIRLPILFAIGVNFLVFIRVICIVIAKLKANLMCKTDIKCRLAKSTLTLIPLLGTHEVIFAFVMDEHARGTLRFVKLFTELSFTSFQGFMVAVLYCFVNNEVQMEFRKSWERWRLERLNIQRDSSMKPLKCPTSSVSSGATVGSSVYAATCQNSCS
# B1: SEQ ID NO: 256 (peptide)
# peptide: H[Aib]EGS[αMeF]TSDK([PEG2′-PEG2′-γGlu-Lauroyl])SSYLEGEAA[αMeK]EFIK([PEG2′-PEG2′-γGlu-Lauroyl])WVVEGG-NH2
# B2: SEQ ID NO: 270 (peptide)
# peptide: H[Aib]EGS[αMeF]TSDV[αMeS]SYK([PEG2′-PEG2′-γGlu-Lauroyl])EGEAA[αMeK]EFIAWK([PEG2′-PEG2′-γGlu-Lauroyl])VEGG-NH2
# B3: SEQ ID NO: 265 (peptide)
# peptide: H[Aib]EGS[αMeF]TSDV[αMeS]SK([PEG2′-PEG2′-γGlu-Palmitoyl])LEGEAA[αMeK]EFIK([PEG2′-PEG2′-γGlu-Palmitoyl])WVVEGG-NH2
# B4: SEQ ID NO: 264 (peptide)
# peptide: H[Aib]EGS[αMeF]TSDV[αMeS]SK([PEG2′-PEG2′-γGlu-Lauroyl])LEGEAA[αMeK]EFIAWK([PEG2′-PEG2′-γGlu-Lauroyl])VEGG-NH2
# B5: SEQ ID NO: 407 (peptide)
# peptide: H[Aib]EGS[αMeF]TSDV[αMeS]SK([PEG2′-PEG2′-γGlu-Lauroyl])LEGEAA[αMeK]E[Nle]IAK([PEG2′-PEG2′-γGlu-Lauroyl])VVEGG-NH2
# B6: SEQ ID NO: 252 (peptide)
# peptide: H[Aib]EGS[αMeF]TSDVSK([PEG2′-PEG2′-γGlu-Lauroyl])YLEGEAA[αMeK]EFIAK([PEG2′-PEG2′-γGlu-Lauroyl])VVEGG-NH2
# B7: SEQ ID NO: 405 (peptide)
# peptide: H[Aib]EGS[αMeF]TSDV[αMeS]SK([PEG2′-PEG2′-γGlu-Lauroyl])LEGEAA[αMeK]E[αMeF]IAK([PEG2′-PEG2′-γGlu-Lauroyl])VVEGG-NH2
# Biological target: GLP-1 receptor (GLP-1R), primary cAMP assay (human, UniProt P43220 24-463)
# Test: cell-based or functional assay
Primary assay EC50 (cAMP) Mean [nM],"Primary assay EC50 (cAMP), n1 [nM]","Primary assay EC50 (cAMP), n2 [nM]",Binder
0.0075,0.00946,0.00557,B1
0.0329,0.0293,0.0365,B2
0.0336,0.0391,0.028,B3
0.0128,0.0182,0.00737,B4
0.002,0.00196,0.00201,B5
0.0025,0.00288,0.00217,B6
0.0039,0.00405,0.00366,B7

# Biological target: glucagon receptor (GCGR), primary cAMP assay (human, UniProt P47871 26-477)
# Sequence (P47871 26-477): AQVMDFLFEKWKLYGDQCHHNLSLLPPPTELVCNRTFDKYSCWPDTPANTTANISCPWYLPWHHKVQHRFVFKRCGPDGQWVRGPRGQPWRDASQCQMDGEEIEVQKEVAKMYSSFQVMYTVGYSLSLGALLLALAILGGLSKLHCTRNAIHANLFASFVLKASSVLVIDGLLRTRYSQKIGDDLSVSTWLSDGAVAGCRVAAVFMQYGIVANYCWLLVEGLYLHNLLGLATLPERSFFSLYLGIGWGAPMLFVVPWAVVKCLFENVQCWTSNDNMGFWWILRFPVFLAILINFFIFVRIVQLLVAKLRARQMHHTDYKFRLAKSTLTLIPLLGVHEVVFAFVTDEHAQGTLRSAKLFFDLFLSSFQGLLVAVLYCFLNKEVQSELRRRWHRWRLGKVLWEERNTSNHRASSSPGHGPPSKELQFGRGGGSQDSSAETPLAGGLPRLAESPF
# Test: cell-based or functional assay
"Primary assay EC50 (cAMP), n1 [nM]","Primary assay EC50 (cAMP), n2 [nM]",Binder
22.2,22.2,B1
22.3,22.3,B2
21.6,21.6,B3
22.6,22.6,B4
21.5,21.5,B5
22.7,22.7,B6
21.5,21.5,B7

# Biological target: T1, glucose-dependent insulinotropic …
# Test: cell-based or functional assay
"Primary assay EC50 (cAMP), n1 [nM]","Primary assay EC50 (cAMP), n2 [nM]",Binder
22.2,22.2,B1
22.3,22.3,B2
21.6,21.6,B3
22.6,22.6,B4
21.5,21.5,B5
22.7,22.7,B6
21.5,21.5,B7

# Biological target: T2, GLP-1R in the INS1e assay
# Test: cell-based or functional assay
INS1e assay EC50 (cAMP) Mean [nM],INS1e assay EC50 (cAMP) n1 [nM],INS1e assay EC50 (cAMP) n2 [nM],Binder
1.29,1.25,1.34,B1
1.72,1.41,2.02,B2
8.77,12.2,5.34,B3
1.03,0.963,1.1,B4
0.104,0.113,0.0952,B5
0.175,0.184,0.166,B6
0.116,0.11,0.121,B7
